According to paper PMC6238066, “Versatile Fungal Polyphenol Oxidase with Chlorophenol Bioremediation Potential: Characterization and Protein Engineering” (Applied and Environmental Microbiology, 2018):

Legend:
Oc1ccc(Cl)cc1O = experiment: spectrophotometric oxidation assay, nonlinear regression; format: biochemical, Thermothelomyces thermophilus; settings: 0.1 M sodium phosphate pH 7, 40°C, 440 nm, 0 to 5 mM substrate
Text: (§1) spectrophotometric oxidation assay, nonlinear regression on TtPPO

[1] = substrate: N[C@@H](Cc1ccc(O)c(O)c1)C(=O)O; experiment: as above; format: biochemical, Thermothelomyces thermophilus; settings: 0.1 M sodium phosphate pH 7, 40°C, 475 nm, 0 to 7 mM substrate
Text: as §1

[2] = substrate: COc1cc(C=O)ccc1O; experiment: as above; format: biochemical, Thermothelomyces thermophilus; settings: 0.1 M sodium phosphate pH 7, 40°C, 0 to 5 mM substrate
Text: as §1

[3] = substrate: Oc1ccc(O)cc1; experiment: as above; format: biochemical, Thermothelomyces thermophilus; settings: 0.1 M sodium phosphate pH 7, 40°C, 480 nm, 0 to 70 mM substrate
Text: as §1

[4] = substrate: Oc1ccccc1O; experiment: as above; format: biochemical, Thermothelomyces thermophilus; settings: 0.1 M sodium phosphate pH 7, 40°C, 0 to 60 mM substrate
Text: as §1

[5] = substrate: Oc1cc(O)c2c(c1)O[C@H](c1ccc(O)c(O)c1)[C@@H](O)C2; experiment: as above; format: biochemical, Thermothelomyces thermophilus; settings: 0.1 M sodium phosphate pH 7, 40°C, 440 nm, 0 to 10 mM substrate (Km lies above tested range)
Text: as §1

purified protein = substrate: COc1ccccc1O; experiment: purified protein; settings: 0.1 M sodium phosphate pH 7, 40°C, 0 to 15 mM substrate

For “TtPPO (Thermothelomyces thermophilus ATCC 42464)”, the Km (Oc1ccc(Cl)cc1O) was 1.6 (0.1) mM, the kcat (Oc1ccc(Cl)cc1O) was 5.69 s⁻¹ and the kcat/Km (Oc1ccc(Cl)cc1O) was 3490 M⁻¹ s⁻¹.

B1: TtPPO (Thermothelomyces thermophilus ATCC 42464) (protein)
chain: RCSSDAPPPAPVGDDLTEPKELTDLFEKAKKAVIDRLHEDEKALRARGEAPRCTADKLIFRREYGSLSKDERLAYVNAVKCLQSKPPRTPASVAPGARSRFDDFVVVHIQQTLDIHYSGIFQAWHRWFVYQYEKALRDECGYTGYQPYWDWPKYASAPQDSPLFNGDPYSLGGNGEYVPHDGPVIVPPEGVSGGNISLPAGVGGGFVRTGPFANMTVNLGPVGGLADTAPGPQGGLGYNPRGLKRDLGGAMNTRYANYTTVLRLLTQPDVDAFRTVSEGVPYTVEIGPHGGIHYTIGGDPGGDLFTSPGDPAFWVHHAQMDRVWATWQALGLLPPADGGDPDPARRYTDLGKGDYAHRTWQNSPPSPFAELSDVIDMGYAAPSTTIGAVMSTTEGELCYFYL
notes: secreted by Pichia pastoris X-33, glycosylated; IMAC
For B1, the Km [1] was 2.2 (0.6) mM, the kcat [1] was 0.108 s⁻¹ and the kcat/Km [1] was 50 M⁻¹ s⁻¹. The Km [2] was 2.0 (0.1) mM, the kcat [2] was 1.92 s⁻¹ and the kcat/Km [2] was 987 M⁻¹ s⁻¹. For the same molecule, the Km [3] was 54.4 (5.5) mM, the kcat [3] was 1.69 s⁻¹ and the kcat/Km [3] was 31.7 M⁻¹ s⁻¹. For the same molecule, the Km [4] was 27.0 (2.8) mM, the kcat [4] was 2.19 s⁻¹ and the kcat/Km [4] was 81.7 M⁻¹ s⁻¹. The Km [5] was 31.0 (12.9) mM, the kcat [5] was 40.5 s⁻¹ and the kcat/Km [5] was 1300 M⁻¹ s⁻¹. The Km (purified protein) was 4.2 (0.6) mM, the kcat (purified protein) was 2.91 s⁻¹ and the kcat/Km (purified protein) was 690 M⁻¹ s⁻¹.
